Test results reported in PMC12416549 (2024).

T1: TNFR1 (Homo sapiens, UniProt P19438)
T1 chain: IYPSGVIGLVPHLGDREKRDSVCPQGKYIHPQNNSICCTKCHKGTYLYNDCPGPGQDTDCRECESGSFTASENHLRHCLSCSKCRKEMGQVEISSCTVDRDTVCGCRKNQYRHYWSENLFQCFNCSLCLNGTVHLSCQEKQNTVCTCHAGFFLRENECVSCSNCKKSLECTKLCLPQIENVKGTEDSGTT


Molecular target: T1, TNFR1
Test: yeast display SC50

| Binder | apparent Kd (screen) [nM] |
| --- | --- |
| S47N (designed binder) MTLQELLREEALRRAEAEAFRYALELLAEKFPEQKEYLLDLAEEIENQIRSLSGVDVEDVRKFLDKEWAWVKELLAEHPAELAEVEAARAARLAELRAEVEAKVAA | 0.49 |
| G54Y (designed binder) MTLQELLREEALRRAEAEAFRYALELLAEKFPEQKEYLLDLAEEIESQIRSLSYVDVEDVRKFLDKEWAWVKELLAEHPAELAEVEAARAARLAELRAEVEAKVAA | 2.73 |
| T2S (designed binder) MSLQELLREEALRRAEAEAFRYALELLAEKFPEQKEYLLDLAEEIESQIRSLSGVDVEDVRKFLDKEWAWVKELLAEHPAELAEVEAARAARLAELRAEVEAKVAA | 0.653 |
| P32D (designed binder) MTLQELLREEALRRAEAEAFRYALELLAEKFDEQKEYLLDLAEEIESQIRSLSGVDVEDVRKFLDKEWAWVKELLAEHPAELAEVEAARAARLAELRAEVEAKVAA | 0.869 |
| E81G (designed binder) MTLQELLREEALRRAEAEAFRYALELLAEKFPEQKEYLLDLAEEIESQIRSLSGVDVEDVRKFLDKEWAWVKELLAEHPAGLAEVEAARAARLAELRAEVEAKVAA | 0.539 |
| A106G (designed binder) MTLQELLREEALRRAEAEAFRYALELLAEKFPEQKEYLLDLAEEIESQIRSLSGVDVEDVRKFLDKEWAWVKELLAEHPAELAEVEAARAARLAELRAEVEAKVAG | 0.956 |
| E77V (designed binder) MTLQELLREEALRRAEAEAFRYALELLAEKFPEQKEYLLDLAEEIESQIRSLSGVDVEDVRKFLDKEWAWVKELLAVHPAELAEVEAARAARLAELRAEVEAKVAA | 0.593 |
| S53W (designed binder) MTLQELLREEALRRAEAEAFRYALELLAEKFPEQKEYLLDLAEEIESQIRSLWGVDVEDVRKFLDKEWAWVKELLAEHPAELAEVEAARAARLAELRAEVEAKVAA | 13.8 |
| E25W (designed binder) MTLQELLREEALRRAEAEAFRYALWLLAEKFPEQKEYLLDLAEEIESQIRSLSGVDVEDVRKFLDKEWAWVKELLAEHPAELAEVEAARAARLAELRAEVEAKVAA | 1.16 |
| A106D (designed binder) MTLQELLREEALRRAEAEAFRYALELLAEKFPEQKEYLLDLAEEIESQIRSLSGVDVEDVRKFLDKEWAWVKELLAEHPAELAEVEAARAARLAELRAEVEAKVAD | 1.05 |
| I45V (designed binder) MTLQELLREEALRRAEAEAFRYALELLAEKFPEQKEYLLDLAEEVESQIRSLSGVDVEDVRKFLDKEWAWVKELLAEHPAELAEVEAARAARLAELRAEVEAKVAA | 0.593 |
| E99P (designed binder) MTLQELLREEALRRAEAEAFRYALELLAEKFPEQKEYLLDLAEEIESQIRSLSGVDVEDVRKFLDKEWAWVKELLAEHPAELAEVEAARAARLAELRAPVEAKVAA | 1.16 |
| A11M (designed binder) MTLQELLREEMLRRAEAEAFRYALELLAEKFPEQKEYLLDLAEEIESQIRSLSGVDVEDVRKFLDKEWAWVKELLAEHPAELAEVEAARAARLAELRAEVEAKVAA | 1.27 |
| A106L (designed binder) MTLQELLREEALRRAEAEAFRYALELLAEKFPEQKEYLLDLAEEIESQIRSLSGVDVEDVRKFLDKEWAWVKELLAEHPAELAEVEAARAARLAELRAEVEAKVAL | 0.539 |
| E16K (designed binder) MTLQELLREEALRRAKAEAFRYALELLAEKFPEQKEYLLDLAEEIESQIRSLSGVDVEDVRKFLDKEWAWVKELLAEHPAELAEVEAARAARLAELRAEVEAKVAA | 5.31 |
| R21F (designed binder) MTLQELLREEALRRAEAEAFFYALELLAEKFPEQKEYLLDLAEEIESQIRSLSGVDVEDVRKFLDKEWAWVKELLAEHPAELAEVEAARAARLAELRAEVEAKVAA | 0.49 |
| E5L (designed binder) MTLQLLLREEALRRAEAEAFRYALELLAEKFPEQKEYLLDLAEEIESQIRSLSGVDVEDVRKFLDKEWAWVKELLAEHPAELAEVEAARAARLAELRAEVEAKVAA | 0.718 |
| P79H (designed binder) MTLQELLREEALRRAEAEAFRYALELLAEKFPEQKEYLLDLAEEIESQIRSLSGVDVEDVRKFLDKEWAWVKELLAEHHAELAEVEAARAARLAELRAEVEAKVAA | 0.49 |
| E86Y (designed binder) MTLQELLREEALRRAEAEAFRYALELLAEKFPEQKEYLLDLAEEIESQIRSLSGVDVEDVRKFLDKEWAWVKELLAEHPAELAEVYAARAARLAELRAEVEAKVAA | 2.05 |
| H78I (designed binder) MTLQELLREEALRRAEAEAFRYALELLAEKFPEQKEYLLDLAEEIESQIRSLSGVDVEDVRKFLDKEWAWVKELLAEIPAELAEVEAARAARLAELRAEVEAKVAA | 1.16 |
| V104R (designed binder) MTLQELLREEALRRAEAEAFRYALELLAEKFPEQKEYLLDLAEEIESQIRSLSGVDVEDVRKFLDKEWAWVKELLAEHPAELAEVEAARAARLAELRAEVEAKRAA | 0.718 |
| V100G (designed binder) MTLQELLREEALRRAEAEAFRYALELLAEKFPEQKEYLLDLAEEIESQIRSLSGVDVEDVRKFLDKEWAWVKELLAEHPAELAEVEAARAARLAELRAEGEAKVAA | 0.718 |
| E77P (designed binder) MTLQELLREEALRRAEAEAFRYALELLAEKFPEQKEYLLDLAEEIESQIRSLSGVDVEDVRKFLDKEWAWVKELLAPHPAELAEVEAARAARLAELRAEVEAKVAA | 0.405 |
| A94G (designed binder) MTLQELLREEALRRAEAEAFRYALELLAEKFPEQKEYLLDLAEEIESQIRSLSGVDVEDVRKFLDKEWAWVKELLAEHPAELAEVEAARAARLGELRAEVEAKVAA | 0.539 |
| V104S (designed binder) MTLQELLREEALRRAEAEAFRYALELLAEKFPEQKEYLLDLAEEIESQIRSLSGVDVEDVRKFLDKEWAWVKELLAEHPAELAEVEAARAARLAELRAEVEAKSAA | 0.869 |
| E99G (designed binder) MTLQELLREEALRRAEAEAFRYALELLAEKFPEQKEYLLDLAEEIESQIRSLSGVDVEDVRKFLDKEWAWVKELLAEHPAELAEVEAARAARLAELRAGVEAKVAA | 0.539 |
